Source: patent publication US20100015135A1
Where a chain is given by its changes, count along the chain named.

B1: anti-EphB4 antibody clone YW30.35 (antibody, V domains shown)
VH: EVQLVESGGGLVQPGGSLRLSCAASGFTISGYYIHWVRQAPGKGLEWVGGIYPYSGSTDYADSVKGRFTISADTSKNTAYLQMNSLRAEDTAVYYCARGSGLRLGGLDYAMDYWGQGTLVTVSS
VL: DIQMTQSPSSLSASVGDRVTITCRASQDVSTAVAWYQQKPGKAPKLLIYSASFLYSGVPSRFSGSGSGTDFTLTISSLQPEDFATYYCQQSYTTPPTFGQGTKVEIK
B2: anti-EphB4 antibody clone YW30.35.2D8 (antibody, V domains shown)
VH: B1 VH with T28S, G31N, I34L, P53L, S55G, G56S, T58S, D59E
VL: B1 VL with Q90E, Y92T
B3: anti-EphB4 antibody clone YW30.35.2D12 (antibody, V domains shown)
VH: B1 VH with P53L, T58R, D59G
VL: B1 VL with Q90K, Y92E, T94I, T97S
B4: anti-EphB4 antibody clone 30.35.2D13 (antibody, V domains shown)
VH: B1 VH with P53L
VL: B1 VL with S91T, Y92A, T93Q, P96E
B5: anti-EphB4 antibody clone YW30.35.1D2 (antibody, V domains shown)
VH: B1 VH with G99S
VL: DIQMTQSPSSLSASVGDRVTITCRASQDSEIFLAWYQQKPGKAPKLLIYSASNLESGVPSRFSGSGSGTDFTLTISSLQPEDFATYYCQQSNAVPLTFGQGTKVEIK

Tests used:
[1] = biological target: murine EphB4-His (murine) (UniProt P54761); assay: SPR, BIAcore-3000, antibody coupled to CM5 chip, EphB4-His injected, 25 C
[2] = biological target: T1, human EphB4-His (human) (UniProt P54760); assay: as above
T1 sequence (looked up): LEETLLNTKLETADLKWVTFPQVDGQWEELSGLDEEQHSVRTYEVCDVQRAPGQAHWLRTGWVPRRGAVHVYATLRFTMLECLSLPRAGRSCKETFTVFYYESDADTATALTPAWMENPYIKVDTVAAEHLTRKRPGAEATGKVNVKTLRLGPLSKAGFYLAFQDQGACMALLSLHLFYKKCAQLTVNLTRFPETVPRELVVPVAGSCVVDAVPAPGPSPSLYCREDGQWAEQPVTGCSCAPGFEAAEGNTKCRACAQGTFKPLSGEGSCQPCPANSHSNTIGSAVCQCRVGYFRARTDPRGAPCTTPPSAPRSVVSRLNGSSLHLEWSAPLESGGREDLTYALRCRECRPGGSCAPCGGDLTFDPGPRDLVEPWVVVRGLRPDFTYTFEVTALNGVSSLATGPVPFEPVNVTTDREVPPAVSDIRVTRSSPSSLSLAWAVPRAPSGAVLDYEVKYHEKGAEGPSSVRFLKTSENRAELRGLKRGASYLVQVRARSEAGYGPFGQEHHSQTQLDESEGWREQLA

Row | Binder | Kd [1] | koff [1] | kon [1] | Kd [2] | koff [2] | kon [2]
1 | B1 | 2.4 nM | 7.5e-05 s⁻¹ | 31000 M⁻¹ s⁻¹ | 32 nM | 9.6e-05 s⁻¹ | 3000 M⁻¹ s⁻¹
2 | B2 | < 0.05 nM | < 5e-06 s⁻¹ | 92000 M⁻¹ s⁻¹ | < 0.12 nM | < 5e-06 s⁻¹ | 40000 M⁻¹ s⁻¹
3 | B3 | – | – | – | < 0.19 nM | < 5e-06 s⁻¹ | 27000 M⁻¹ s⁻¹
4 | B4 | – | – | – | < 0.11 nM | < 5e-06 s⁻¹ | 45000 M⁻¹ s⁻¹
5 | B5 | < 0.04 nM | < 5e-06 s⁻¹ | 128000 M⁻¹ s⁻¹ | < 0.14 nM | < 5e-06 s⁻¹ | 36000 M⁻¹ s⁻¹
